Results on two molecules are retold here after publication doi:10.1101/219642 (bioRxiv, 2017).

In assay [1] the target is ubiquitin on ubiquitin-coated agarose beads (UniProt P0CG47 1-76, coupled to agarose beads). Briefly: pull-down.
Assay [2] addresses Purified bovine ubiquitin (bovine, UniProt P0CG53 1-76). Briefly: SPR.

B1: GST fusion protein of the constitutively open mutant of the cytoplasmic region of Stx3 (L165A/E166A) (domain or fragment)
chain: MKDRLEQLKAKQLTQDDDTDEVEIAIDNTAFMDEFFSEIEETRLNIDKISEHVEEAKKLYSIILSAPIPEPKTKDDLEQLTTEIKKRANNVRNKLKSMEKHIEEDEVRSSADLRIRKSQHSVLSRKFVEVMTKYNEAQVDFRERSKGRIQRQLEITGKKTTDEEAAEMLESGNPAIFTSGIIDSQISKQALSEIEGRHKDIVRLESSIKELHDMFMDIAMLVENQGEMLDNIELNVMHTVDHVEKARDETKRAMKYQGQARKKLI
For B1, the binding result in assay [1] was “binds”.

B2: GST fusion protein containing only the Habc domain (1-146) of Stx3 (domain or fragment)
chain: MKDRLEQLKAKQLTQDDDTDEVEIAIDNTAFMDEFFSEIEETRLNIDKISEHVEEAKKLYSIILSAPIPEPKTKDDLEQLTTEIKKRANNVRNKLKSMEKHIEEDEVRSSADLRIRKSQHSVLSRKFVEVMTKYNEAQVDFRERSK
B2: in assay [2], the Kd (commonly a measure of binding affinity in units of concentration) is 1360 µM. Moreover, the binding result in assay [1] is “binds”.
